# Columns and labels:
# [1] = biological target: recombinant α1-antitrypsin, M allele with the C232S mutation (AT_(C232S)) (UniProt P01009); assay: FRET or BRET; heat-induced polymerization at 60°C; 0.1 mg/ml protein in 10 mM Na2HPO4/NaH2PO4, 0.1 M NaCl, 0.1% PEG8K, pH 7.4; 2-8 μM ATTO-550-Ni-NTA and ATTO-647N-Ni-NTA on the His tag; apparent rate, corrected to zero dye; monomer to polymer
# [2] = biological target: recombinant α1-antitrypsin, M allele with the C232S mutation (AT_(C232S)) (UniProt P01009); assay: FRET or BRET; heat-induced polymerization at 55°C; 0.1 mg/ml protein in 10 mM Na2HPO4/NaH2PO4, 0.1 M NaCl, 0.1% PEG8K, pH 7.4; 2-8 μM ATTO-550-Ni-NTA and ATTO-647N-Ni-NTA on the His tag; apparent rate, corrected to zero dye; monomer to polymer
# [3] = biological target: recombinant α1-antitrypsin, M allele with the C232S mutation (AT_(C232S)) (UniProt P01009); assay: FRET or BRET; heat-induced polymerization at 50°C; 0.1 mg/ml protein in 10 mM Na2HPO4/NaH2PO4, 0.1 M NaCl, 0.1% PEG8K, pH 7.4; 2-8 μM ATTO-550-Ni-NTA and ATTO-647N-Ni-NTA on the His tag; apparent rate, corrected to zero dye; monomer to polymer
# [4] = biological target: bovine α-chymotrypsin (bovine)
# [5] = biological target: bovine α-chymotrypsin (bovine); assay: enzyme inhibition progress curves; pseudo-first-order conditions, 4 h at 25°C, 5-600 nM inhibitor, 200 μM substrate, 0.5 nM bovine α-chymotrypsin
# [6] = biological target: α1-antitrypsin reactive loop mutant P2P1′ (P357D, S359D) on the C232S background (UniProt P01009); assay: FRET or BRET; heat-induced polymerization at 60°C; 0.1 mg/ml protein in 10 mM Na2HPO4/NaH2PO4, 0.1 M NaCl, 0.1% PEG8K, pH 7.4; 2-8 μM ATTO-550-Ni-NTA and ATTO-647N-Ni-NTA on the His tag; apparent rate, corrected to zero dye; monomer to polymer
# [7] = biological target: α1-antitrypsin reactive loop mutant P2P1′ (P357D, S359D) on the C232S background (UniProt P01009); assay: FRET or BRET; heat-induced polymerization at 55°C; 0.1 mg/ml protein in 10 mM Na2HPO4/NaH2PO4, 0.1 M NaCl, 0.1% PEG8K, pH 7.4; 2-8 μM ATTO-550-Ni-NTA and ATTO-647N-Ni-NTA on the His tag; apparent rate, corrected to zero dye; monomer to polymer
# [8] = biological target: α1-antitrypsin reactive loop mutant P2P1′ (P357D, S359D) on the C232S background (UniProt P01009); assay: FRET or BRET; heat-induced polymerization at 50°C; 0.1 mg/ml protein in 10 mM Na2HPO4/NaH2PO4, 0.1 M NaCl, 0.1% PEG8K, pH 7.4; 2-8 μM ATTO-550-Ni-NTA and ATTO-647N-Ni-NTA on the His tag; apparent rate, corrected to zero dye; monomer to polymer
# [9] = biological target: α1-antitrypsin reactive loop mutant P4 (A355D) on the C232S background (UniProt P01009); assay: FRET or BRET; heat-induced polymerization at 60°C; 0.1 mg/ml protein in 10 mM Na2HPO4/NaH2PO4, 0.1 M NaCl, 0.1% PEG8K, pH 7.4; 2-8 μM ATTO-550-Ni-NTA and ATTO-647N-Ni-NTA on the His tag; apparent rate, corrected to zero dye; monomer to polymer
# [10] = biological target: α1-antitrypsin reactive loop mutant P4 (A355D) on the C232S background (UniProt P01009); assay: FRET or BRET; heat-induced polymerization at 55°C; 0.1 mg/ml protein in 10 mM Na2HPO4/NaH2PO4, 0.1 M NaCl, 0.1% PEG8K, pH 7.4; 2-8 μM ATTO-550-Ni-NTA and ATTO-647N-Ni-NTA on the His tag; apparent rate, corrected to zero dye; monomer to polymer
# [11] = biological target: α1-antitrypsin reactive loop mutant P4 (A355D) on the C232S background (UniProt P01009); assay: FRET or BRET; heat-induced polymerization at 50°C; 0.1 mg/ml protein in 10 mM Na2HPO4/NaH2PO4, 0.1 M NaCl, 0.1% PEG8K, pH 7.4; 2-8 μM ATTO-550-Ni-NTA and ATTO-647N-Ni-NTA on the His tag; apparent rate, corrected to zero dye; monomer to polymer
# [12] = biological target: α1-antitrypsin reactive loop mutant P6 (L353D) on the C232S background (UniProt P01009); assay: FRET or BRET; heat-induced polymerization at 60°C; 0.1 mg/ml protein in 10 mM Na2HPO4/NaH2PO4, 0.1 M NaCl, 0.1% PEG8K, pH 7.4; 2-8 μM ATTO-550-Ni-NTA and ATTO-647N-Ni-NTA on the His tag; apparent rate, corrected to zero dye; monomer to polymer
# [13] = biological target: α1-antitrypsin reactive loop mutant P6 (L353D) on the C232S background (UniProt P01009); assay: FRET or BRET; heat-induced polymerization at 55°C; 0.1 mg/ml protein in 10 mM Na2HPO4/NaH2PO4, 0.1 M NaCl, 0.1% PEG8K, pH 7.4; 2-8 μM ATTO-550-Ni-NTA and ATTO-647N-Ni-NTA on the His tag; apparent rate, corrected to zero dye; monomer to polymer
# [14] = biological target: α1-antitrypsin reactive loop mutant P6 (L353D) on the C232S background (UniProt P01009); assay: FRET or BRET; heat-induced polymerization at 50°C; 0.1 mg/ml protein in 10 mM Na2HPO4/NaH2PO4, 0.1 M NaCl, 0.1% PEG8K, pH 7.4; 2-8 μM ATTO-550-Ni-NTA and ATTO-647N-Ni-NTA on the His tag; apparent rate, corrected to zero dye; monomer to polymer
# [15] = biological target: α1-antitrypsin reactive loop mutant P6P4 (L353D, A355D) on the C232S background (UniProt P01009); assay: FRET or BRET; heat-induced polymerization at 60°C; 0.1 mg/ml protein in 10 mM Na2HPO4/NaH2PO4, 0.1 M NaCl, 0.1% PEG8K, pH 7.4; 2-8 μM ATTO-550-Ni-NTA and ATTO-647N-Ni-NTA on the His tag; apparent rate, corrected to zero dye; monomer to polymer
# [16] = biological target: α1-antitrypsin reactive loop mutant P6P4 (L353D, A355D) on the C232S background (UniProt P01009); assay: FRET or BRET; heat-induced polymerization at 55°C; 0.1 mg/ml protein in 10 mM Na2HPO4/NaH2PO4, 0.1 M NaCl, 0.1% PEG8K, pH 7.4; 2-8 μM ATTO-550-Ni-NTA and ATTO-647N-Ni-NTA on the His tag; apparent rate, corrected to zero dye; monomer to polymer
# [17] = biological target: α1-antitrypsin reactive loop mutant P6P4 (L353D, A355D) on the C232S background (UniProt P01009); assay: FRET or BRET; heat-induced polymerization at 50°C; 0.1 mg/ml protein in 10 mM Na2HPO4/NaH2PO4, 0.1 M NaCl, 0.1% PEG8K, pH 7.4; 2-8 μM ATTO-550-Ni-NTA and ATTO-647N-Ni-NTA on the His tag; apparent rate, corrected to zero dye; monomer to polymer
# [18] = biological target: α1-antitrypsin reactive loop mutant P10P8 (G349D, M351D) on the C232S background (UniProt P01009); assay: FRET or BRET; heat-induced polymerization at 60°C; 0.1 mg/ml protein in 10 mM Na2HPO4/NaH2PO4, 0.1 M NaCl, 0.1% PEG8K, pH 7.4; 2-8 μM ATTO-550-Ni-NTA and ATTO-647N-Ni-NTA on the His tag; apparent rate, corrected to zero dye; monomer to polymer
# [19] = biological target: α1-antitrypsin reactive loop mutant P10P8 (G349D, M351D) on the C232S background (UniProt P01009); assay: FRET or BRET; heat-induced polymerization at 55°C; 0.1 mg/ml protein in 10 mM Na2HPO4/NaH2PO4, 0.1 M NaCl, 0.1% PEG8K, pH 7.4; 2-8 μM ATTO-550-Ni-NTA and ATTO-647N-Ni-NTA on the His tag; apparent rate, corrected to zero dye; monomer to polymer
# [20] = biological target: α1-antitrypsin reactive loop mutant P10P8 (G349D, M351D) on the C232S background (UniProt P01009); assay: FRET or BRET; heat-induced polymerization at 50°C; 0.1 mg/ml protein in 10 mM Na2HPO4/NaH2PO4, 0.1 M NaCl, 0.1% PEG8K, pH 7.4; 2-8 μM ATTO-550-Ni-NTA and ATTO-647N-Ni-NTA on the His tag; apparent rate, corrected to zero dye; monomer to polymer
# [21] = biological target: α1-antitrypsin reactive loop mutant P14P12 (T345D, A347D) on the C232S background (UniProt P01009); assay: FRET or BRET; heat-induced polymerization at 60°C; 0.1 mg/ml protein in 10 mM Na2HPO4/NaH2PO4, 0.1 M NaCl, 0.1% PEG8K, pH 7.4; 2-8 μM ATTO-550-Ni-NTA and ATTO-647N-Ni-NTA on the His tag; apparent rate, corrected to zero dye; monomer to polymer
# [22] = biological target: α1-antitrypsin reactive loop mutant P14P12 (T345D, A347D) on the C232S background (UniProt P01009); assay: FRET or BRET; heat-induced polymerization at 55°C; 0.1 mg/ml protein in 10 mM Na2HPO4/NaH2PO4, 0.1 M NaCl, 0.1% PEG8K, pH 7.4; 2-8 μM ATTO-550-Ni-NTA and ATTO-647N-Ni-NTA on the His tag; apparent rate, corrected to zero dye; monomer to polymer
# [23] = biological target: α1-antitrypsin reactive loop mutant P14P12 (T345D, A347D) on the C232S background (UniProt P01009); assay: FRET or BRET; heat-induced polymerization at 50°C; 0.1 mg/ml protein in 10 mM Na2HPO4/NaH2PO4, 0.1 M NaCl, 0.1% PEG8K, pH 7.4; 2-8 μM ATTO-550-Ni-NTA and ATTO-647N-Ni-NTA on the His tag; apparent rate, corrected to zero dye; monomer to polymer
substance,measurement,setting,value
"recombinant α1-antitrypsin, M allele with the C232S mutation (AT_(C232S)) (from UniProt P01009 26-418) (natural protein)","k (app,fr) (apparent rate of polymerization)",[1],0.01 s⁻¹
same,"k (app,fr) (apparent rate of polymerization)",[2],0.0016 s⁻¹
same,"k (app,fr) (apparent rate of polymerization)",[3],0.00021 s⁻¹
same,SI (stoichiometry of inhibition): residual activity of 0.5 μM bovine α-chymotrypsin after 30 min with inhibitor,[4],1.1
same,kass•SI,[5],1.5e+06
same,kon,[5],1.5e+06 M⁻¹ s⁻¹
"α1-antitrypsin reactive loop mutant P2P1′ (P357D, S359D) on the C232S background (from UniProt P01009 26-418) (natural protein)","k (app,fr) (apparent rate of polymerization)",[6],0.012 s⁻¹
same,"k (app,fr) (apparent rate of polymerization)",[7],0.0017 s⁻¹
same,"k (app,fr) (apparent rate of polymerization)",[8],0.00022 s⁻¹
same,SI (stoichiometry of inhibition): residual activity of 0.5 μM bovine α-chymotrypsin after 30 min with inhibitor,[4],100
α1-antitrypsin reactive loop mutant P4 (A355D) on the C232S background (from UniProt P01009 26-418) (natural protein),"k (app,fr) (apparent rate of polymerization)",[9],0.078 s⁻¹
same,"k (app,fr) (apparent rate of polymerization)",[10],0.0011 s⁻¹
same,"k (app,fr) (apparent rate of polymerization)",[11],0.00011 s⁻¹
α1-antitrypsin reactive loop mutant P6 (L353D) on the C232S background (from UniProt P01009 26-418) (natural protein),"k (app,fr) (apparent rate of polymerization)",[12],0.01 s⁻¹
same,"k (app,fr) (apparent rate of polymerization)",[13],0.0007 s⁻¹
same,"k (app,fr) (apparent rate of polymerization)",[14],3.7e-05 s⁻¹
"α1-antitrypsin reactive loop mutant P6P4 (L353D, A355D) on the C232S background (from UniProt P01009 26-418) (natural protein)","k (app,fr) (apparent rate of polymerization)",[15],0.0055 s⁻¹
same,"k (app,fr) (apparent rate of polymerization)",[16],0.00044 s⁻¹
same,"k (app,fr) (apparent rate of polymerization)",[17],9.8e-06 s⁻¹
same,SI (stoichiometry of inhibition): residual activity of 0.5 μM bovine α-chymotrypsin after 30 min with inhibitor,[4],89
"α1-antitrypsin reactive loop mutant P10P8 (G349D, M351D) on the C232S background (from UniProt P01009 26-418) (natural protein)","k (app,fr) (apparent rate of polymerization)",[18],0.0028 s⁻¹
same,"k (app,fr) (apparent rate of polymerization)",[19],0.00066 s⁻¹
same,"k (app,fr) (apparent rate of polymerization)",[20],7.2e-05 s⁻¹
same,SI (stoichiometry of inhibition): residual activity of 0.5 μM bovine α-chymotrypsin after 30 min with inhibitor,[4],4.56
same,kass•SI,[5],570000
same,kon,[5],120000 M⁻¹ s⁻¹
"α1-antitrypsin reactive loop mutant P14P12 (T345D, A347D) on the C232S background (from UniProt P01009 26-418) (natural protein)","k (app,fr) (apparent rate of polymerization)",[21],0.024 s⁻¹
same,"k (app,fr) (apparent rate of polymerization)",[22],0.00043 s⁻¹
same,"k (app,fr) (apparent rate of polymerization)",[23],5.8e-05 s⁻¹
